Target: T1, recombinant human full length Fzd7 (human, UniProt O75084 33-574)
T1 construct: also called full-length recombinant Fzd7
Assay: co-IP; recombinant human full-length Fzd7 and ILK mixed 1:1 in lysis buffer, incubated overnight at 4 °C with antibody (anti-Fzd7 in Fig. 4D); Western blot for ILK and Fzd7
Settings: both partners purified

B1: recombinant human full-length ILK (enzyme, UniProt Q13418 1-452, looked up)
chain: MDDIFTQCREGNAVAVRLWLDNTENDLNQGDDHGFSPLHWACREGRSAVVEMLIMRGARINVMNRGDDTPLHLAASHGHRDIVQKLLQYKADINAVNEHGNVPLHYACFWGQDQVAEDLVANGALVSICNKYGEMPVDKAKAPLRELLRERAEKMGQNLNRIPYKDTFWKGTTRTRPRNGTLNKHSGIDFKQLNFLTKLNENHSGELWKGRWQGNDIVVKVLKVRDWSTRKSRDFNEECPRLRIFSHPNVLPVLGACQSPPAPHPTLITHWMPYGSLYNVLHEGTNFVVDQSQAVKFALDMARGMAFLHTLEPLIPRHALNSRSVMIDEDMTARISMADVKFSFQCPGRMYAPAWVAPEALQKKPEDTNRRSADMWSFAVLLWELVTREVPFADLSNMEIGMKVALEGLRPTIPPGISPHVCKLMKICMNEDPAKRPKFDMIVPILEKMQDK
notes: Integrin-linked kinase (ILK), human, recombinant, full length; also called full-length recombinant ILK
B1: binds.
